Data published in the Human Domainome abundance scans (Beltran et al. 2025).
± gives the uncertainty stated by the source.

B1: POU domain, class 5, transcription factor 1, residues 134 to 212; numbered along this chain, Q01860 (parent)
chain: EESQDIKALQKELEQFAKLLKQKRITLGYTQADVGLTLGVLFGKVFSQTTICRFEALQLSFKNMCKLRPLLQKWVEEAD

Variants of: B1
Assay: abundance fitness (aPCA) (normalised: wild type 0, dead -1); higher = more abundant; growth selection in yeast, the domain comes from the species named
Conditions: Homo sapiens

V34I and Q4I are within error of each other in abundance fitness: -0.031 ± 0.35 for the first, -0.309 ± 0.24 for the second.

Q4P and Q4M are within error of each other in abundance fitness: -0.135 ± 0.12 for the first, -0.118 ± 0.18 for the second.

Q4A and Q4C are within error of each other in abundance fitness: -0.097 ± 0.081 for the first, -0.211 ± 0.22 for the second.

Compared with Q4S, Q4Y is higher in abundance fitness: -0.258 ± 0.13 for the first, 0.291 ± 0.19 for the second.

Q4T and Q10D are within error of each other in abundance fitness: 0.005 ± 0.11 for the first, -0.128 ± 0.18 for the second.

Q10C and Q10H are within error of each other in abundance fitness: -0.477 ± 0.29 for the first, -0.31 ± 0.49 for the second.

Q10I and Q10S are within error of each other in abundance fitness: -0.373 ± 0.34 for the first, -0.111 ± 0.097 for the second.

Q10R and Q10M are within error of each other in abundance fitness: 0.137 ± 0.063 for the first, -0.063 ± 0.16 for the second.

Q10P and Q10N are within error of each other in abundance fitness: -0.214 ± 0.17 for the first, -0.086 ± 0.24 for the second.

L9C and L9G are within error of each other in abundance fitness: -0.123 ± 0.13 for the first, -0.127 ± 0.07 for the second.

L9H and L9V are within error of each other in abundance fitness: -0.215 ± 0.32 for the first, 0.044 ± 0.076 for the second.

First: L9E
Second: L9K
The abundance fitness of the first is lower: 0.017 ± 0.089 for the first, 0.28 ± 0.11 for the second.

L9T and L9F are within error of each other in abundance fitness: -0.171 ± 0.18 for the first, -0.316 ± 0.29 for the second.

L9N and A56G are within error of each other in abundance fitness: -0.086 ± 0.22 for the first, -0.06 ± 0.076 for the second.

A56M and A56S are within error of each other in abundance fitness: 0.159 ± 0.16 for the first, -0.002 ± 0.1 for the second.

A56K and A56Q are within error of each other in abundance fitness: -0.197 ± 0.18 for the first, 0.059 ± 0.13 for the second.

E77I and E77H are within error of each other in abundance fitness: -0.079 ± 0.23 for the first, 0.144 ± 0.35 for the second.

E77L and E77V are within error of each other in abundance fitness: -0.124 ± 0.12 for the first, -0.161 ± 0.12 for the second.

First: Q58E
Second: Q58R
The abundance fitness of the first is higher: 0.126 ± 0.11 for the first, -0.31 ± 0.12 for the second.

T50Q and T50S are within error of each other in abundance fitness: -0.411 ± 0.34 for the first, -0.542 ± 0.2 for the second.

Going from T50W to T50V, the abundance fitness rises from -0.43 ± 0.22 to 0.015 ± 0.087.

Compared with T50R, S60G is higher in abundance fitness: -0.756 ± 0.19 for the first, -0.268 ± 0.09 for the second.

S60D and S60I are within error of each other in abundance fitness: 0.197 ± 0.15 for the first, -0.284 ± 0.5 for the second.

Compared with S60E, S60R is lower in abundance fitness: -0.173 ± 0.15 for the first, -0.556 ± 0.14 for the second.

L19W and L19G are within error of each other in abundance fitness: -0.181 ± 0.16 for the first, -0.063 ± 0.13 for the second.

Compared with A8P, A8L is lower in abundance fitness: 0.697 ± 0.5 for the first, -0.318 ± 0.38 for the second.

A8E and L20W are within error of each other in abundance fitness: -0.08 ± 0.4 for the first, -0.741 ± 0.38 for the second.

L20R and C65K are within error of each other in abundance fitness: -0.299 ± 0.14 for the first, -0.271 ± 0.22 for the second.

Going from C65W to C65G, the abundance fitness falls from -0.289 ± 0.12 to -0.691 ± 0.12.

First: D33V
Second: D33P
The abundance fitness of the first is lower: -1.19 ± 0.42 for the first, -0.227 ± 0.2 for the second.

D33F and D33M are within error of each other in abundance fitness: -0.407 ± 0.31 for the first, -0.497 ± 0.34 for the second.

Going from K44P to K44S, the abundance fitness falls from -0.3 ± 0.15 to -0.805 ± 0.33.

K44H and K44E are within error of each other in abundance fitness: -0.181 ± 0.27 for the first, 0.016 ± 0.077 for the second.

Y29F and Y29G are within error of each other in abundance fitness: -0.761 ± 0.47 for the first, -0.56 ± 0.14 for the second.

Y29A and Y29C are within error of each other in abundance fitness: -0.41 ± 0.13 for the first, -0.64 ± 0.32 for the second.

I6Q and I6C are within error of each other in abundance fitness: 0.063 ± 0.14 for the first, -0.417 ± 0.43 for the second.

First: I6W
Second: I6V
The abundance fitness of the first is higher: -0.351 ± 0.17 for the first, -0.749 ± 0.2 for the second.

I6F and I6K are within error of each other in abundance fitness: 0.052 ± 0.27 for the first, 0.359 ± 0.12 for the second.

K23Q and K23R are within error of each other in abundance fitness: -0.256 ± 0.46 for the first, 0.059 ± 0.12 for the second.

S47L and S47T are within error of each other in abundance fitness: -0.756 ± 0.35 for the first, -0.169 ± 0.24 for the second.

S47E and S47D are within error of each other in abundance fitness: -0.228 ± 0.2 for the first, -0.323 ± 0.28 for the second.

S47F and S47A are within error of each other in abundance fitness: -0.094 ± 0.29 for the first, -0.379 ± 0.22 for the second.
